Source: patent publication CN113135995A (SHANGHAI INST OF BIOLOGICAL PRODUCTS CO LTD, dated 2021)

Legend:
[1] = biological target: T1, HER3胞外区重组蛋白 (recombinant HER3 extracellular domain protein, expressed in CHO cells) (human, UniProt P21860 20-643); test: ProteOn XPR36 SPR, ratio of KD values
T1 construct: also called HER3蛋白

[2] = biological target: T1, HER3胞外区重组蛋白 (recombinant HER3 …); test: ProteOn XPR36 SPR; antibody captured by goat anti-human IgG Fc on GLM chip, HER3 protein 0.625-10 nM as analyte
[3] = biological target: 细胞表面HER3分子 (HER3 on the surface of human tumour cells) (human, UniProt P21860 20-1342); test: cell-based or functional assay
[4] = biological target: T2, hGH标签的HER3胞外区蛋白 (hGH-tagged HER3 extracellular domain protein) (human, UniProt P21860 20-643); test: blocking ELISA: HRG coated, hGH-tagged HER3 ECD 1 ug/ml, antibody from 2 ug/ml in 1:3 steps, HRP anti-hGH detection
T2 construct: also called HER3分子; not shown: hGH tag
T2 sequence (P21860 20-643): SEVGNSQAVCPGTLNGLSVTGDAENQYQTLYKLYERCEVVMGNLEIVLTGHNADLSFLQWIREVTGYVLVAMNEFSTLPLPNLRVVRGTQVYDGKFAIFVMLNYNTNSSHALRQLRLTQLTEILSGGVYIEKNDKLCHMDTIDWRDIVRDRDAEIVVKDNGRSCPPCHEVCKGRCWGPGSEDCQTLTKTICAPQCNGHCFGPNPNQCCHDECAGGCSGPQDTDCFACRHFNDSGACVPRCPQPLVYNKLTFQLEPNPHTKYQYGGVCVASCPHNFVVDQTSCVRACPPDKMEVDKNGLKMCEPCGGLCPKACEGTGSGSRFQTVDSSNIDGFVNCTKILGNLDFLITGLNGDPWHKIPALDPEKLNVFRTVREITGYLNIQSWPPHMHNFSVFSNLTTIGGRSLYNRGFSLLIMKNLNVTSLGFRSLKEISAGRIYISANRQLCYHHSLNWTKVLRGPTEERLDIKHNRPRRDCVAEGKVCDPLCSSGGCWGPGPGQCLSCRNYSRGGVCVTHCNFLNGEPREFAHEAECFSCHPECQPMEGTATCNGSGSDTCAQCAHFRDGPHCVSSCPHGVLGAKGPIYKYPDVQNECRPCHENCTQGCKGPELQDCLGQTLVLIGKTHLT

T1 sequence (P21860 20-643 limits assumed): as the sequence (P21860 20-643) above
Sequence of 细胞表面HER3分子 (HER3 on the surface of human tumour cells) (P21860 20-1342 limits assumed): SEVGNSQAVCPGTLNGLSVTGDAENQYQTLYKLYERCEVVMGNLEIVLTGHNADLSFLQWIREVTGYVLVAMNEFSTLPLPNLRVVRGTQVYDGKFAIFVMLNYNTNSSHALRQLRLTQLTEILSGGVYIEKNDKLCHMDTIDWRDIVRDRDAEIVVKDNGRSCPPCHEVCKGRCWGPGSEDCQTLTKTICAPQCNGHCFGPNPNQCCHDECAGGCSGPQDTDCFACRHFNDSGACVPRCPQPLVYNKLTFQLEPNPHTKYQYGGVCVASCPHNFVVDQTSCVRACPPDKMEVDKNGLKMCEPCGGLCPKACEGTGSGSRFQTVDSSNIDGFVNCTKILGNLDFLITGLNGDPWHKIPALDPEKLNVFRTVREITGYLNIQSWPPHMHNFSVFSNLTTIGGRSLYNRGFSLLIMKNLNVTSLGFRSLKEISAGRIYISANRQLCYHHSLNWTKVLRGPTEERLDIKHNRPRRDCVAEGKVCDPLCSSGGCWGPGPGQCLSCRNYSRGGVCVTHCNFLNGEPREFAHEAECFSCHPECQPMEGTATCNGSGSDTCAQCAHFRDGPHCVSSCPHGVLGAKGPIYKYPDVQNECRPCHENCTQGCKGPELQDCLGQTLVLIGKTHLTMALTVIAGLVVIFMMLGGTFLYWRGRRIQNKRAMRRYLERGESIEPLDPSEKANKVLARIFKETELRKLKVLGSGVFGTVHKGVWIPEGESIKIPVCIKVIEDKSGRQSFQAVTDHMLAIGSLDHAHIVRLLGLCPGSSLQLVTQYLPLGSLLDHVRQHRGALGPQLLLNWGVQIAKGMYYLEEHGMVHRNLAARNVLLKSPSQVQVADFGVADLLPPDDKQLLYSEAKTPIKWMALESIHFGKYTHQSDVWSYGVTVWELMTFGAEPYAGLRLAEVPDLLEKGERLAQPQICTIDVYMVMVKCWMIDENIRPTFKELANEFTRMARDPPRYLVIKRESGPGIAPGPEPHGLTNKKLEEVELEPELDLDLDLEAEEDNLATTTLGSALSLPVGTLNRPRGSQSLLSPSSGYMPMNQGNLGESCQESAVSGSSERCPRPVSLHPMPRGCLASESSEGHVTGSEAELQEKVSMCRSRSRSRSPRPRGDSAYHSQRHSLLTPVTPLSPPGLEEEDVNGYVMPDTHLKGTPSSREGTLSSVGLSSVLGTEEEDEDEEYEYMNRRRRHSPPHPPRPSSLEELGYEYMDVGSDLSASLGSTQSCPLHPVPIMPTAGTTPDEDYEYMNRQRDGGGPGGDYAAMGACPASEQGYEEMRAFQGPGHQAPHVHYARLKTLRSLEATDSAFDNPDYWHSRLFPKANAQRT

Binder | fold increase in affinity against hu1044 [1] | Kd [2] [nM] | HRG刺激的乳腺癌MCF-7细胞增殖 IC50 (CCK-8) [3] [µg/mL] | fold increase in affinity against hu1044-7 [1] | IC50 [4] [µg/mL]
hu1044Y抗体 (optimised humanized anti-HER3 antibody hu1044Y) (antibody, human IgG1, kappa, V domains shown, hu1044 with heavy chain position 27 changed from Gly to Tyr) VH: QVQLVQSGAEVKKPGSSVKVSCKASGYTFSNYWIDWVKQAPGQGLEWMGEILPGSGGTDYNEKFKGRVTITADTSTSTAYMELSSLRSEDTAVYYCARDDYDVFAYWGQGTLVTVSS VL: DIVMTQSPGTLSLSPGERATLSCRSSKSLLHSNGITYLYWYQQKPGQAPRLLIYQMSNLASGIPDRFSSSGSGTDFTLTISRLEPEDFAVYYCAQNLELPWTFGQGTKVEIKR | ~2 倍 (fold) | 0.232 | – | – | –
hu1044抗体 (humanized anti-HER3 monoclonal antibody hu1044) (antibody, V domains shown) VH: QVQLVQSGAEVKKPGSSVKVSCKASGGTFSNYWIDWVKQAPGQGLEWMGEILPGSGGTDYNEKFKGRVTITADTSTSTAYMELSSLRSEDTAVYYCARDDYDVFAYWGQGTLVTVSS VL: DIVMTQSPGTLSLSPGERATLSCRSSKSLLHSNGITYLYWYQQKPGQAPRLLIYQMSNLASGIPDRFSSSGSGTDFTLTISRLEPEDFAVYYCAQNLELPWTFGQGTKVEIKR | – | 0.442 | – | – | –

Next, values leading:

fold increase in affinity against hu1044 [1] | Kd [2] [nM] | HRG刺激的乳腺癌MCF-7细胞增殖 IC50 (CCK-8) [3] [µg/mL] | fold increase in affinity against hu1044-7 [1] | IC50 [4] [µg/mL] | Binder
– | 0.117 | 0.0133 | ~3 倍 (fold) | ~0.1 | hu1044-7Y抗体 (optimised humanized anti-HER3 antibody hu1044-7Y) (antibody, human IgG1, kappa, V domains shown, hu1044-7 with heavy chain position 27 changed from Gly to Tyr; In the flow cytometry assays it was labelled with Dylight 488 NHS ester) VH: QVQLVQSGAEVKKPGSSVKVSCKASGYTFSNYWIDWVRQAPGQGLEWMGEILPGSGGTDYNEKFKGKATITADTSTSTAYMELSSLRSEDTAVYYCARDDYDVFAYWGQGTLVTVSS VL: DIVMTQSPGTLSLSPGERATLSCRSSKSLLHSNGITYLYWYQQKPGQAPRLLIYQMSNLASGVPDRFSSSGSGTDFTLTISRLEPEDFAVYYCAQNLELPWTFGQGTKVEIKR
– | 0.375 | – | – | – | hu1044-7抗体 (humanized anti-HER3 antibody variant hu1044-7) (antibody, V domains shown) VH: QVQLVQSGAEVKKPGSSVKVSCKASGGTFSNYWIDWVRQAPGQGLEWMGEILPGSGGTDYNEKFKGKATITADTSTSTAYMELSSLRSEDTAVYYCARDDYDVFAYWGQGTLVTVSS VL: DIVMTQSPGTLSLSPGERATLSCRSSKSLLHSNGITYLYWYQQKPGQAPRLLIYQMSNLASGVPDRFSSSGSGTDFTLTISRLEPEDFAVYYCAQNLELPWTFGQGTKVEIKR
